Assay results: the DeepSol protein solubility set

assay: soluble on expression in E. coli; label from the status in PepcDB or PDB records

Sequence | soluble on expression in E. coli
MAEGVNEPCFPGDCGIFVTKVDKGSIADGRLRVNDWLLRINDVDLINKDKKQAIKALLNGEGAINMVVRRRKSLGGKVVTPLHINLSGQKDSGISLENGVYAAAVLPGSPAAKEGSLAVGDRIVAINGIALDNKSLNECESLLRSCQDSLTLSLLKVFPQSSSWSGQNIFENIKDSDKMLSFRAHGPEVQAHNKRNLIQHNNSTQTDIFYTDRLEDRKEPGPPGGSSSFLHKPFPGGPLQVCPQACPSASERSLSSFRSDASGDRGFGLVDVRGRRPLLPFETEVGPCGVGEASLDKADSEGSNSGGTWPKAMLSSTAVPEKLSVYKKPKQRKSIFDPNTFKRPQTPPKIDYLLPGPGPAHSPQPSKRAGPLTPPKPPRRSDSIKFQHRLETSSESEATLVGSSPSTSPPSALPPDVDPGEPMHASPPRKARVRIASSYYPEGDGDSSHLPAKKSCDEDLTSQKVDELGQKRRRPKSAPSFRPKLAPVVIPAQFLEEQKCVPASGELSPELQEWAPYSPGHSSRHSNPPLYPSRPSVGTVPRSLTPSTTVSSILRNPIYTVRSHRVGPCSSPPAARDAGPQGLHPSVQHQGRLSLDLSHRTCSDYSEMRATHGSNSLPSSARLGSSSNLQFKAERIKIPSTPRYPRSVVGSERGSVSHSECSTPPQSPLNIDTLSSCSQSQTSASTLPRIAVNPASLGERRKDRPYVEEPRHVKVQKGSEPLGISIVSGEKGGIYVSKVTVGSIAHQAGLEYGDQLLEFNGINLRSATEQQARLIIGQQCDTITILAQYNPHVHQLSSHSRSSSHLDPAGTHSTLQGSGTTTPEHPSVIDPLMEQDEGPSTPPAKQSSSRIAGDANKKTLEPRVVFIKKSQLELGVHLCGGNLHGVFVAEVEDDSPAKGPDGLVPGDLILEYGSLDVRNKTVEEVYVEMLKPRDGVRLKVQYRPEEFTKAKGLPGDSFYIRALYDRLADVEQELSFKKDDILYVDDTLPQGTFGSWMAWQLDENAQKIQRGQIPSKYVMDQEFSRRLSMSEVKDDNSATKTLSAAARRSFFRRKHKHKRSGSKDGKDLLALDAFSSDSIPLFEDSVSLAYQRVQKVDCTALRPVLILGPLLDVVKEMLVNEAPGKFCRCPLEVMKASQQAIERGVKDCLFVDYKRRSGHFDVTTVASIKEITEKNRHCLLDIAPHAIERLHHMHIYPIVIFIHYKSAKHIKEQRDPIYLRDKVTQRHSKEQFEAAQKLEQEYSRYFTGVIQGGALSSICTQILAMVNQEQNKVLWIPACPL | soluble
MIERGKFRSLTLINWNGFFARTFDLDELVTTLSGGNGAGKSTTMAAFVTALIPDLTLLHFRNTTEAGATSGSRDKGLHGKLKAGVCYSMLDTINSRHQRVVVGVRLQQVAGRDRKVDIKPFAIQGLPMSVQPTQLVTETLNERQARVLPLNELKDKLEAMEGVQFKQFNSITDYHSLMFDLGIIARRLRSASDRSKFYRLIEASLYGGISSAITRSLRDYLLPENSG | soluble
GSHMSRLLEDFRNQRYPNLQLRDLANHIVEFSQDQHGSRFIQQKLERATAAEKQMVFSEILAAAYSLMTDVFGNYVIQKFFEFGTPEQKNTLGMQVKGHVLQLALQMYGCRVIQKALESISPEQQQEIVHELDGHVLKCVKDQNGNHVVQKCIECVDPVALQFIINAFKGQVYSLSTHPYGCRVIQRILEHCTAEQTTPILDELHEHTEQLIQDQYGNYVIQHVLEHGKQEDKSILINSVRGKVLVLSQHKFASNVVEKCVTHATRGERTGLIDEVCTFNDNALHVMMKDQYANYVVQKMIDVSEPTQLKKLMTKIRKNMAAL | soluble
MSVSNKLGDLASKVYENVLLEEVKKYPRPRHIGIITDGNRRYARNVGISENEGHVKGKEKVEEVVDWCMELDIRIVTFYAFSTENFRRSPEEVDFLFHLIDNAFKSLLKDERVYKNRINVKVIGNLSILPAYLRQTIHIVEETTKNFNNYQLNLAIGYGGREEILDAIKRITRDAMDGKLNIDELDEEKFRMYLYDGRIPDPDLILRTSGEERISNFLLWQSAYSELYFSDVYWPEFSKLDFLRAIYSYQRRQRRFGR | soluble
RPVREVGMYNMAMLMRSTGQSSFGQSVRIAENFLNEFPRSSHREQMAAILVESYFTGKDYNSSLRSIQKIAQPTASILAAKQFVLNRMAEQKEAAGYDSEALSFVSSSISMGNKGEYFPEAYFLRGNLRYRAGDFPTAAADYRAYISAAGDRDAANLPLGYYRLGYSLFNAERYDMALEAFKEYVSRSGIAPNLSADAYARIGDCRYMKRDFHGAREAYSMAYRVYPSGGDYALLRRARLEGLAKQYADQIQTLDKLIREFPDSRHLTAALYEKGCGAVLSGKHNVAEEAFNAVVKRSPDSREARQSSLQLGLLYYNTGRTKEAIRTYQRIIDRYPRSEETTVALSDLRSIYLEEDRIDEYSTYVRGLKDKVSIAPSETEQLGFLSAERKYRRRQPDARRDLEAYLERYPQGSDRHKAELYLADLDYQAGNADAAYNRYSRLVNSPGLPEDYKIDARLRLGRMQYERKEYKAALQSFQSVLDTDGAEAVRDQAVQGVTESAYADKDYRRVIDVIAGLKNQAALPHTLRLYRAKSYQALKMNREAIADYELLAEDFSTATGAEAVVMQAQLEMEAKRLSKAKSILEKFIAKSTPQQYWLARGFILLSDIYKKEGDTFTARQYLESLEKNYPNHEDDIHEQIAQRLE | not soluble
MAHHHHHHMEYDDGEYGRESSVEALAQSQESEQVASAASGLPESSSSAGSAKPSFRILSTRQLAQWARVRHQMDVGCSGNTVWTVSSAKHGNGVLHLMRHHDLNNFWQSDGVLPHVIRIQLGQLTPVEAMAVYVNSAVDQSYSPRVIRVKAGTHNGDMTEVAKADIGAGQECGWVLITLREMAGDDGDDVEGGGPNDGGGGVAAGVRIQHQQQEVRPRQQDGGAPEGGAASSYSPPIPYSEVAAALGHGNHATPSSAGVQTSAAMPRIPRSTSNPADRWLWCTLIDIYICENQFNGRDCHLRGIRLMGPRYEELERVSNADATGTVTCARPLQGGEPLEGTADELQLR | not soluble
MHTLEQLRAGALTGIQALKLSENLTEVPAEVFQLADTLEILDLSGNRLHSLPQEMACLTRLRILFLSDNDFTIFPEVLKELKQLDMLGIKANNIQVIAEDAIPVSLRWLILTDNCIEALPVSIGRCTKLQKVMLAGNQLSGLPDELAACRNIELLRISANNMHTFPEVVKQLPRLAWLAYSSNPFQVNRSSFNALPVIAWENVALMEQLGAGASGIIYKARLNTGKSPEDVAVKVFKGAVTSDGLPEDEMTACMQAGRNSHLVSVLGVIGGHPEGMHGLVMELIPAEYKNLGRPPSFVTCTRDTFAAGTRFTAQQMLLILKGVAEAAKQLHDNGIMHGDLYAHNTLINEKYHSLFGDFGAATLYDKNNRDEAFFLERLDVRAFGCLADDLLQYSVCTKEDEWCLETLKRLSAGCMNEEPDKRPAFNTIVYELQLLQNTHLEHHHHHH | soluble
MGSDKIHHHHHHMDDITPSDIQAQAIAAIRDWFHSRTDEQQVFRLFGFAGTGKSTVLKFALDDLGLSPHAEDRPGVVTATFTGKAALVLRRKGTPARTIHSLIYSVIEATDEEIEEAGKRITQAELNARGLIGFDRTAAEAAIEAMRQTLRDMKKPRFALNPDSPAASAKLIVLDEVSMVGDEMARDLMSFERPILVLGDPGQLPPIKGEGAFTQAAPDIMLTEIHRQAAESAIIRLATMAREGQPIGFGQYDDHAWKMRMADVTPQQALRGGQVICGRNTTRFQLNNALRRAAGFGGSYLPTGADEKVICLKNQNDLGLINGMFLTLADIVDEGSVYFSATVTDEVGTPIGPPAKDGKPGRLMLYKGHFEDHVALDPHRHDRDWRDKKKLTEATFGWAITCHKAQGSQWENVIVWDDGLGRTEQDRRRWLYTAITRAERGLVILA | not soluble
MGSDKIHHHHHHMNRTAVGVDIAKSVFQVHYVDPETGEIVNKPIKRAKFLEFFANRARCLIGMEACGGAQHWARQLMKMGHEIRLMPAEFVKAFNIRNKNDAADARAIWLAVQQPGKPVAVKTEMQQAMLALHRMRRQLVTFRTMQINGLRGLPTEYGEVMGRGRAALDKAIPEVLRRVAERLPAVVIDTLREQWNGLTKLDEQVACIERRMREWKKQDKAVQAISEIPGVGLLTATAAVAMMGDAKAFSSGREFAAWAGLVPKQTGSGGKVNLHGISRRGDTYLRTLLIHGARSVLTHAKDPGPWVEQMKKRRPLNVVVVALANKIARTIWAGTFLRYSYNFP | not soluble
MSLSEIKRKFDAVSGKYDEQRRKFIPCFDDFYGVSVSIASVDTENPDILDLGAGTGLLSAFLMEKYPEATFTLVDMSEKMLEIAKNRFRGNLKVKYIEADYSKYDFEEKYDMVVSALSIHHLEDEDKKELYKRSYSILKESGIFINADLVHGETAFIENLNKTIWRQYVENSGLTEEEIAAGYERSKLDKDIEMNQQLNWLKEAGFRDVSCIYKYYQFAVMFGRKTEGHHHHHH | soluble
MPESIFKQISLDILKLHRDSVYSLLATSGCNCQVHEAAYVNIDGKYYIALSCEPEVGEVKTGILLIEDESRNLRLSWVGSARELDCKDNAYKRALSALSRKLGRCKDRLHTAVQPFLLELVPEKGRFSVGDEEVWISRNDLVRALYPVGYSMRQAVFQI | not soluble
MKFSVLMSLYIKENPQFLRECFESLVAQTRQADEIVLVFDGVVTPDLEFVVTEFETKLPLKLVKLPQNRGLGKALNEGLLHCDYDWVFRMDTDDICVPDRFEKQVAFIEQHPESIIFGGQIAEFGKNVNDIVAYRNVPTSAQEIIKFTQKRCPFNHMTVAYQKSAVINCGGYEDLQEDYYLWIKLVAQGLYMANLPDILVYARVGNGMVSRRRGVNQAKAEWRLFKLKYRLGIQGLLSGLFTFALRFGSRLLPTSLLKKLYQTFLRK | soluble
MSSTPSLSHSPAELYRAWQDLRAERPQLRARDAAALLQVSEGELVASRVGIDAVRLRPDWAALLPALGELGPIMALTRNEHCVHERKGPYREVTVSANGQMGLVVSPDIDLRLFLGGWNAVFAIAEETARGTQRSIQVFDQQGVAVHKVFLAEASDVRAWEPLVERLRAAEQDAVLALHEPRAPAAALVDAQIDAAALREGWAALKDTHHFHALLKKHGAQRTQALRLAGGEWAERLDNGDLAKLFEAAAESGLPIMVFVGNAHCIQIHTGPVCNLKWLDDWFNVLDPEFNLHLKTTGIAELWRVRKPSTDGIVTSWEAFDADGELIVQLFGARKPGEPERDDWRELAESFKAL | not soluble
MQKAKNDYGTVVSVLKEDFHGFATGSIGAPDLNTVLTYAFPGECEYPWINFKPGYTQQQGWGGANVWQAGGTVCLNADGENFSHLNTPMLNVSGYQNIAIVRFDGVSDSLFSCLIREIRTLPSFASMPVRRKEWPIRL | not soluble
MKIIARDRGTGKTTELVKESARTGQYILASNKSHVRAIEQIAKKAGVTIPYPVTVDEIVSMDRFTCASSIQRDGLLVDEAIMVLSKLIGLKITGATISLEGEQQC | not soluble
MSLNQPLLSVNNLTHLYAPGKGFSDVSFDLWPGEVLGIVGESGSGKTTLLKSISARLTPQQGEIHYENRSLYAMSEADRRRLLRTEWGVVHQHPLDGLRRQVSAGGNIGERLMATGARHYGDIRATAQKWLEEVEIPANRIDDLPTTFSGGMQQRLQIARNLVTHPKLVFMDEPTGGLDVSVQARLLDLLRGLVVELNLAVVIVTHDLGVARLLADRLLVMKQGQVVESGLTDRVLDDPHHPYTQLLVSSVLEGHHHHHH | soluble
MCDKLGGVAIAVQGALFEHNERRQLGDGAFIDIRSGWLTGGEELLDALLSTVPWRAERRQMYDRVVDVPRLVSFHDLTIEDPPHPQLARMRRRLNDIYGGELGEPFTTAGLCYYRDGSDSVAWHGDTIGRGSTEDTMVAIVSLGATRVFALRPRGRGPSLRLPLAHGDLLVMGGSCQRTFEHAVPKTSAPTGPRVSIQFRPRDVR | not soluble
MFRMLNSSFEDDPFFSESILAHRENMRQMIRSFSEPFGRDLLSISDGRGRAHNRRGHNDGEDSLTHTDVSSFQTMDQMVSNMRNYMQKLERNFGQLSVDPNGHSFCSSSVMTYSKIGDEPPKVFQASTQTRRAPGGIKETRKAMRDSDSGLEKMAIGHHIHDRAHVIKKSKNKKTGDEEVNQEFINMNESDAHAFDEEWQSEVLKYKPGRHNLGNTRMRSVGHENPGSRELKRREKPQQSPAIEHGRRSNVLGDKLHIKGSSVKSNKKLEHHHHHH | soluble
